Biological target: the molecule itself
Assay: non-reducing gel and blot of the purified protein; ΔIRE1-V5/His purified on a Ni column, non-reducing condition (without β-mercaptoethanol)

B1: ΔIRE1-V5/His (ER lumenal domain of human IRE1) (domain or fragment, UniProt O75460 19-443, looked up)
chain: IFGSTSTVTLPETLLFVSTLDGSLHAVSKRTGSIKWTLKEDPVLQVPTHVEEPAFLPDPNDGSLYTLGSKNNEGLTKLPFTIPELVQASPCRSSDGILYMGKKQDIWYVIDLLTGEKQQTLSSAFADSLCPSTSLLYLGRTEYTITMYDTKTRELRWNATYFDYAASLPEDDVDYKMSHFVSNGDGLVVTVDSESGDVLWIQNYASPVVAFYVWQREGLRKVMHINVAVETLRYLTFMSGEVGRITKWKYPFPKETEAKSKLTPTLYVGKYSTSLYASPSMVHEGVAVVPRGSTLPLLEGPQTDGVTIGDKGECVITPSTDVKFDPGLKSKNKLNYLRNYWLLIGHHETPLSASTKMLERFPNNLPKHRENVIPADSEKKSFEEVINLVDQTSENAPTTVSRDVEEKPAHAPARPEAPVDSMLKD
notes: human IRE1, lumenal domain (ΔIRE1), lacking the cytoplasmic domain; Most of the purified protein is a dimer under non-reducing conditions; a portion was pretreated with β-mercaptoethanol to keep it monomeric; source: CHO, transfected (pcDNA3.1); in lysate, or purified from the cell extract on Ni-NTA agarose; not shown: V5, C-terminal, kept; His, C-terminal, kept
stoichiometry N: 2

Source: article PMC3799859, “Sigma-1 Receptor Chaperone at the ER-Mitochondrion Interface Mediates the Mitochondrion-ER-Nucleus Signaling for Cellular Survival” (PLoS ONE, 2013)
